Marks after values point to notes of the source that are not given here.
Columns and labels:
Assay type in all cases: cell-based, human
[1] = test system: Prm1-directed luciferase expression; experiment: Effect of PMA, PD98059 or Vitamin D3 on Prm1-directed luciferase expression in HEL cells
Description: HEL and EA.hy 926 cells were co-transfected with the various pGL3Basic-recombinant plasmids (2 mg), encoding firefly luciferase, along with pRL-TK (200 ng), encoding renilla luciferase, using DMRIE-C® transfection reagent. HEK293, WI-38, and 1° hAoSMCs were co-transfected with the pGL3Basic-recombinant plasmids (2 mg), along with pRL-TK (200 ng), using Effectene transfection reagent. In all cases, cells co-transfected with pRL-TK (200 ng) in the presence of either the pGL3Control vector (firefly luciferase gene under the control of the SV40 promoter; 2 mg) or the promoter-less pGL3Basic empty vector (2 mg), which served as positive and negative controls, respectively. […] Relative firefly to renilla luciferase activity (arbitrary units) was calculated as a ratio and was expressed in relative luciferase units (RLU). To investigate the effect of over-expression of exon 5 (+ or −) or KTS (+ or −) isoforms of WT1 on Prm1-directed gene expression, HEL cells were co-transfected with either pGL3b:Prm1 or pGL3b:Prm1D (1.5 μg) plus 200 ng of pRL-TK along with either pcDNA3:WT1 (+/+), pcDNA3:WT1 (+/−), pcDNA3:WT1 (−/+), pcDNA3:WT1 (−/−) (0.5 μg), or as a control, pcDNA3 (0.5 μg). […] The plasmid pCMV5-NAB1, containing the entire coding sequence for NAB1, was generously donated by Dr. Gerald Thiel, University of Saarland Medical Center, Homburg, Germany, and has been described previously (Thiel et al., 2000). To investigate the effect of over-expression of NAB1 on the PMA-mediated induction of Prm1-directed gene expression, HEL cells were transiently co-transfected with pGL3b:Prm1 (2 μg) plus pRL-TK (200 ng) along with either pCMV5 (control) or pCMV:NAB1 (1 μg).

Egr1 = experiment: Immunoblot analysis of Egr1 expression in HEL cells; conditions: 100 nM PMA plus 10 μM PD98059, 16 h
Description: The expression of WT1, Sp1, Egr1, NF-E2, GATA-1 and Ets-1 proteins in HEL cells was confirmed by western blot analysis. Briefly, whole cell protein was resolved by SDS-PAGE (10% acrylamide gels) and transferred to polyvinylidene difluoride (PVDF) membrane according to standard methodology. […] For PMA studies, HEL cells were pre-incubated for the indicated amount of time with 100 nM PMA, with 10 μM PD98059, with 100 nM PMA plus 10 μM PD98059 or, as a control, with vehicle [0.1% (v/v) DMSO]. Whole cell protein (60 μg per lane) was resolved by SDS-PAGE (10% acrylamide gels) and transferred to polyvinylidene difluoride (PVDF) membrane according to standard methodology.

[2] = test system: Prm1-directed luciferase expression; experiment: Effect of over-expression of WT1 isoforms, Egr1 or NAB1 on Prm1-directed luciferase expression in HEL cells
Description: HEL and EA.hy 926 cells were co-transfected with the various pGL3Basic-recombinant plasmids (2 mg), encoding firefly luciferase, along with pRL-TK (200 ng), encoding renilla luciferase, using DMRIE-C® transfection reagent. HEK293, WI-38, and 1° hAoSMCs were co-transfected with the pGL3Basic-recombinant plasmids (2 mg), along with pRL-TK (200 ng), using Effectene transfection reagent. In all cases, cells co-transfected with pRL-TK (200 ng) in the presence of either the pGL3Control vector (firefly luciferase gene under the control of the SV40 promoter; 2 mg) or the promoter-less pGL3Basic empty vector (2 mg), which served as positive and negative controls, respectively. Firefly and renilla luciferase expression was assayed some 48 h post-transfection using the Dual-Luciferase Reporter Assay System™, as described (Coyle et al., 2005). Relative firefly to renilla luciferase activity (arbitrary units) was calculated as a ratio and was expressed in relative luciferase units (RLU). To investigate the effect of over-expression of exon 5 (+ or −) or KTS (+ or −) isoforms of WT1 on Prm1-directed gene expression, HEL cells were co-transfected with either pGL3b:Prm1 or pGL3b:Prm1D (1.5 μg) plus 200 ng of pRL-TK along with either pcDNA3:WT1 (+/+), pcDNA3:WT1 (+/−), pcDNA3:WT1 (−/+), pcDNA3:WT1 (−/−) (0.5 μg), or as a control, pcDNA3 (0.5 μg). […]

HEL 92.1.7 cells = experiment: Dual luciferase genetic reporter assay of promoter-directed luciferase expression in HEL cells
Description: HEL and EA.hy 926 cells were co-transfected with the various pGL3Basic-recombinant plasmids (2 mg), encoding firefly luciferase, along with pRL-TK (200 ng), encoding renilla luciferase, using DMRIE-C® transfection reagent. HEK293, WI-38, and 1° hAoSMCs were co-transfected with the pGL3Basic-recombinant plasmids (2 mg), along with pRL-TK (200 ng), using Effectene transfection reagent. In all cases, cells co-transfected with pRL-TK (200 ng) in the presence of either the pGL3Control vector (firefly luciferase gene under the control of the SV40 promoter; 2 mg) or the promoter-less pGL3Basic empty vector (2 mg), which served as positive and negative controls, respectively. Firefly and renilla luciferase expression was assayed some 48 h post-transfection using the Dual-Luciferase Reporter Assay System™, as described (Coyle et al., 2005). Relative firefly to renilla luciferase activity (arbitrary units) was calculated as a ratio and was expressed in relative luciferase units (RLU). To investigate the effect of over-expression of exon 5 (+ or −) or KTS (+ or −) isoforms of WT1 on Prm1-directed gene expression, HEL cells were co-transfected with either pGL3b:Prm1 or pGL3b:Prm1D (1.5 μg) plus 200 ng of pRL-TK along with either pcDNA3:WT1 (+/+), pcDNA3:WT1 (+/−), pcDNA3:WT1 (−/+), pcDNA3:WT1 (−/−) (0.5 μg), or as a control, pcDNA3 (0.5 μg). Cells were harvested 48 h post-transfection and assayed for luciferase activity, as above, or subjected to western blot or RT-PCR analysis. The plasmids pcDNA3:WT1 (+/+), pcDNA3:WT1 (+/−), pcDNA3:WT1 (−/+) and pcDNA3:WT1 (−/−) were generously donated by Dr. Charles T. Roberts JR, Oregon National Primate Research Center, Oregon, USA and have been previously described (Tajinda et al., 1999). For PMA studies, approximately 32 h post-transfection, the medium was supplemented with PMA (100 nM), with PMA (100 nM) and PD98059 (10 μM) or, as a control, with vehicle [0.1% (v/v) DMSO]. After 16 h, cells were assayed for firefly and renilla luciferase using the Dual-Luciferase Reporter Assay System™ as previously described (Coyle et al., 2005). The plasmid pCMV5-NAB1, containing the entire coding sequence for NAB1, was generously donated by Dr. Gerald Thiel, University of Saarland Medical Center, Homburg, Germany, and has been described previously (Thiel et al., 2000). To investigate the effect of over-expression of NAB1 on the PMA-mediated induction of Prm1-directed gene expression, HEL cells were transiently co-transfected with pGL3b:Prm1 (2 μg) plus pRL-TK (200 ng) along with either pCMV5 (control) or pCMV:NAB1 (1 μg). Cells were harvested 48 h post-transfection and assayed for luciferase activity, as above.

Molecule: COc1cccc(-c2cc(=O)c3ccccc3o2)c1N [PD98059, 2-(2-amino-3-methoxyphenyl)-4H-1-benzopyran-4-one]
- Effect on luciferase expression directed by the Prm1K sub-fragment ([1]; 100 nM PMA plus 10 μM PD98059, 16 h): neither PMA alone (p=0.4721) nor PMA plus PD98059 (p=0.2693) had any significant effect
- PMA-induction of Prm1-directed luciferase expression in the presence of PD98059 ([1]; 100 nM PMA plus 10 μM PD98059, 16 h, 4.3-fold with PMA alone): 2.3 fold
- Effect on PMA-induction of Egr1 protein expression (Egr1): completely abolished the PMA-induction of Egr1 protein expression

Molecule: C=C1/C(=C\C=C2/CCC[C@]3(C)[C@@H]([C@H](C)CCCC(C)(C)O)CC[C@@H]23)C[C@@H](O)C[C@@H]1O [Vitamin D3, 1α, 25-dihydroxy-vitamin D3]
- Effect on luciferase expression directed by Prm1K ([1]; 80 nM Vitamin D3, 24 h or 30 h): no significant effect on luciferase expression directed by Prm1K
- Increase in Prm1-directed luciferase expression ([1]; 80 nM Vitamin D3, 30 h): 1.6 fold

B1: NAB1: Egr1 co-repressor NGFI-A-binding protein 1, over-expressed from pCMV5-NAB1 (protein)
chain: MAAALPRTLGELQLYRILQKANLLSYFDAFIQQGGDDVQQLCEAGEEEFLEIMALVGMASKPLHVRRLQKALRDWVTNPGLFNQPLTSLPVSSIPIYKLPEGSPTWLGISCSSYERSSNAREPHLKIPKCAATTCVQSLGQGKSDVVGSLALQSVGESRLWQGHHATESEHSLSPADLGSPASPKESSEALDAAAALSVAECVERMAPTLPKSDLNEVKELLKTNKKLAKMIGHIFEMNDDDPHKEEEIRKYSAIYGRFDSKRKDGKHLTLHELTVNEAAAQLCVKDNALLTRRDELFALARQISREVTYKYTYRTTKSKCGERDELSPKRIKVEDGFPDFQDSVQTLFQQARAKSEELAALSSQQPEKVMAKQMEFLCNQAGYERLQHAERRLSAGLYRQSSEEHSPNGLTSDNSDGQGERPLNLRMPNLQNRQPHHFVVDGELSRLYPSEAKSHSSESLGILKDYPHSAFTLEKKVIKTEPEDSR
- Effect of NAB1 over-expression on PMA-induction of Prm1 activity ([2]; HEL, PMA 100 nM 16 h): significantly reduced the PMA-induction of Prm1 activity
- Effect of NAB1 over-expression on Prm1-directed luciferase activity ([2]; vehicle-treated HEL cells): did not significantly affect Prm1-directed luciferase activity

B2: Prm1D^WT-1(a, b, x)*: Prm1D-derived promoter with mutations at −6717, −6206 and −6800 (SEQ ID NO:124) (nucleic acid, listed as Homo sapiens)
DNA: GCTCCAAAGCCACCTCCGAGCCTCCTCAAGAGACCCTCCCATGCGATGCCACCACCCCAGCCCTCCCGGCTCACCTGCTCTGGGACCACCTTTCTCAGTCTGGCTGTGTCGTCTGGTGCACCCCCCATCCCTCTGTCCTATCACCCCACCCCTGGAAGGGGCCTCAAATATGTCCTGTATGTATTAAGCAGGGCATACTACTACTGTGTGCCGCGTTCCAGCGCACCCAGTGAATTTGGAGCCCTGGAGTCTGGGCGACCCCCGGGAGCCGATCCGCCTGGACCTGCCCCGCCCCCTCCAGGCCTTGGGTGCTGCCCAGATGGTGAATAATGCGGGCCTGGCGGCGGGAGCGCCGGGAAGAGGCCTGGCAGGGCGCTGGGCGGCTGGAGGGGCTGAGGCTCCCGAGGAAGCGCCCCTGCCACCCCTACGCGGGCCATTGCATCCCTGCCACCGGTGGCCTGGGGGTCCCAAGGGCGCCGCCTTCCCCAGAAGGCTGTAGGGTGTCCCGGCGTGCGGGGGGCACCCACTGACTCCAAGTCAGCCAGGCCCGGGCCCGAGGGGCGTGGCCAGCGCAGGGTGGGCGGGGCTGATGAGAGACAGCGGGAGACAGAGACTGGACGGAGAGAGCGAGCCGCGGGCTGCCAGCGGCCTACACCCGTCCCAGCTCGGCTTAGCCCCCGCGGACCCCTCCAGGCCGCGACCCCAGGGCGTCCTGTGCCGCCACGCCCTCCATCTGTGTGGGTCCTCTGCTGGGCCCGCCCCTGGTCACAGCCAGACTGACTCAGTTTCCCTGGGAGGTCCCGCTCGAGCCCGTCCTTCCCCTCCCTCTGCCCGCCCCCAGCCCTCGCCCCACCCTCGGCGCCCGCACATCTGCCTGCTCAGCTCCAGACGGCGCCCGGACCCCCGGGCGCGGGATCCAGCCAGGTGGGAGCCCCGCAGATGAGGTCTCTGAAG
- Statistical significance of luciferase expression vs Prm1D^WT-1(a, b)* (HEL 92.1.7 cells; HEL): *** (p<0.001)
- Mean firefly relative to renilla luciferase activity (HEL 92.1.7 cells; HEL cells, co-transfected with pRL-TK, 48 h post-transfection): 38.26 RLU
- Luciferase expression compared with another construct, in words (HEL 92.1.7 cells; HEL, comparator as named in the words or parent fragment): an even stronger promoter for driving luciferase expression relative to Prm1D^WT1(a)*^(b)*
- Statistical significance of luciferase expression vs Prm1D (HEL 92.1.7 cells; HEL, ↑ = increase): *** (p<0.001)

Reference: US20110269825A1, “Modified Thromboxane A2 Receptor Promoter Sequence” (priority 2008, published 2011)
